B1: deglycosylated mIFN-α4: recombinant mouse interferon α4 (GenBank NP_034634) expressed in Pichia pastoris, glycosyl groups removed with glycosidase (protein, UniProt P07351 25-186, looked up)
Interferon alpha-4: CDLPHTYNLGNKRALTVLEEMRRLPPLSCLKDRKDFGFPLEKVDNQQIQKAQAILVLRDLTQQILNLFTSKDLSATWNATLLDSFCNDLHQQLNDLKACVMQEPPLTQEDSLLAVRTYFHRITVYLRKKKHSLCAWEVIRAEVWRALSSSTNLLARLSEEKE
modifications: deglycosylated
notes: recombinant mouse interferon α4 (GenBank NP_034634) expressed in Pichia pastoris, glycosyl groups removed with glycosidase
B2: PEG-mIFN-α4: deglycosylated recombinant mouse interferon α4 modified with 40kD Y-type polyethylene glycol succinimide ester (YPEG-NHS); SEQ ID NO: 6 (protein)
chain: CDLPHTYNLGNKRALTVLEEMRRLPPLSCLKDRKDFGFPLEKVDNQQIQKAQAILVLRDLTQQILNLFTSKDLSATWNATLLDSFCNDLHQQLNDLKACVMQEPPLTQEDSLLAVRTYFHRITVYLRKKKHSLCAWEVIRAEVWRALSSSTNLLARLSEEKE
modifications: 40kD Y-type PEG; deglycosylated; peginterferon murine alpha 4

Tests used:
[1] = system: transplanted liver cancer H22; experiment: Prevention of recurrence of transplanted liver cancer H22 in mice; type: in vivo, BALB/c mice; details: for anticancer activity / prevention of tumor recurrence (conclusion): H22 recurrence simulated with low-density tumor inoculation; for Tumor incidence: tumor volume ≥ 62.5 mm^3 positive, then stopped 103 days, PEG-mIFN-α4 1 μg/mouse s.c.
Source text: After tumor treatment, the tumor load in patient's body is relatively low, so a low tumor grafting volume is used to simulate the state after tumor treatment. […] Three days after tumor inoculation, they were randomly divided into the following experiment groups: PEG-mIFN-α4 group (N=28, 14 females, 14 males). PEG-mIFN-α4 combined with gemcitabine group (N=28, 14 females, 14 males), normal saline control group (N=28, 14 females, 14 males), and gemcitabine only group (N=28, 14 females, 14 males).
PEG-mIFN-α4 was administered by subcutaneous injection on the back of the neck, with a dose of 1 microgram per mouse. Administration began on the day after grouping. In the PEG-mIFN-α4 group, PEG-mIFN-α4 was administered once a week for 9 weeks, and then stopped for 103 days. In the PEG-mIFN-α4 combined with gemcitabine group, PEG-mIFN-α4 and gemcitabine were administered once a week for 9 weeks, and then stopped for 103 days. In the gemcitabine alone group, gemcitabine was administered once a week for 9 weeks, and then stopped for 103 days. The normal saline control group was given an equal volume of normal saline. Gemcitabine was injected intraperitoneally at a dose of 60 mg/kg.
(§1) The tumor incidence of each group was calculated when the tumor volume was greater than or equal to 62.5 mm^3, which was determined as positive for tumor occurrence.

[2] = system: transplanted colorectal cancer CT26; experiment: Prevention of recurrence of transplanted colorectal cancer CT26 in mice; type: in vivo, BALB/c mice; details: for anticancer activity / prevention of tumor recurrence (conclusion): CT26 recurrence simulated with low-density tumor inoculation; for survival rate during the observation period / Tumor incidence: gemcitabine 60 mg/kg i.p.; for Tumor incidence: tumor volume ≥ 62.5 mm^3 positive, then stopped 56 days
Protocol: On the day after tumor inoculation, they were randomly divided into the following experiment groups: PEG-mIFN-α4 only group (N=20, 10 females and 10 males), normal saline control group (N=20, 10 females and 10 males), gemcitabine only group (N=20, 10 females and 10 males), and PEG-mIFN-α4 combined with gemcitabine group (N=20, 10 females and 10 males).
PEG-mIFN-α4 was administered by subcutaneous injection on the back of the neck, with a dose of 1 microgram per mouse. Administration began on the day after grouping. In the PEG-miFN-α4 only group, PEG-mFN-α4 was administered once a week for 12 times, and then stopped for 56 days. In the PEG-mIFN-α4 combined with gemcitabine group, both PEG-mIFN-α4 and gemcitabine were administered once a week for 12 consecutive times, and then stopped for 56 days. In the gemcitabine only group, gemcitabine was administered once a week for 12 times, and then stopped for 56 days. The normal saline control group was given an equal volume of normal saline. Gemcitabine was administered by intraperitoneal injection at a dose of 60 mg/kg.
as §1

[3] = system: mouse fibroblast/encephalomyocarditis vinis (L929/EMCV); experiment: L929/EMCV cytopathic inhibition method, specific activity; type: cell-based; details: commercial mIFN-α4 (R&D) as the standard
Protocol: (§2) The bacterial endotoxin content of the deglycosylated mIFN-α4 stock solution was determined by the Limulus reagent method as lower than 60 EU/mg, specific activity was determined as 5.4×10^8 U/mg by using the commercial mIFN-α4 (R&D, catalog number 12115-1) as the standard, and by using the mouse fibroblast/encephalomyocarditis vinis (L929/EMCV) cytopathic inhibition method.
as §2, with “PEG-mIFN-α4” for “deglycosylated mIFN-α4”, “15 EU/mg. Specific” for “60 EU/mg, specific”, “6.1×10^6” for “5.4×10^8”

[4] = parameters: species or system BALB/c mice; details: mouse, in vivo, sc
Source text: Note: In the pharmacokinetic analysis, for samples with blood concentration lower than the quantification lower limit, the sample before the peak blood concentration was counted as 0, and the sample after the peak was expressed as BLQ.

[5] = by day 166 after tumor inoculation, once a week for 9 weeks, gemcitabine 60 mg/kg i.p.
[6] = by day 134 after tumor inoculation, once a week for 12 times, PEG-mIFN-α4 1 μg/mouse s.c.
[7] = by day 134 after tumor inoculation, once a week for 12 times, PEG-mIFN-α4 1 μg/mouse s.c., listed as gemcitabine

Molecule	anticancer activity / prevention of tumor recurrence (conclusion) [1]	Median survival time (time after tumor inoculation, days) [1, 5] [days]	Tumor incidence [1, 5] [%]	Tumor incidence ([1]; by day 166 after tumor inoculation, once a week for 9 weeks, gemcitabine 60 mg/kg i.p., listed as gemcitabine) [%]	anticancer activity / prevention of tumor recurrence (conclusion) [2]	survival rate during the observation period [2, 6]	survival rate during the observation period [2, 7] [%]	Tumor incidence [2, 6] [%]	Tumor incidence [2, 7] [%]	specific activity [3]	Cl_F—obs [4] [mL/h]	T1/2 [4] [h]	Tmax [4] [h]	Vz_F—obs [4] [mL]	elimination half-life (T1) [4] [h]	plasma concentration peak time (Tmax) [4] [h]	tumor incidence compared with normal saline control group ([1]; H22, day 166)	tumor incidence compared with normal saline control group ([2]; CT26, day 134)	Median survival time (time after tumor inoculation, days) [2, 6] [days]
Nc1ccn([C@@H]2O[C@H](CO)[C@@H](O)C2(F)F)c(=O)n1 [Gemcitabine, reference compound]	could effectively prevent tumor recurrence	93.0	57.1	57.1	could effectively prevent tumor recurrence	period: 55.0%	55.0	50.0	50										
B1										5.4×10^8 U/mg									
B2	could effectively prevent tumor recurrence		32.1		could effectively prevent tumor recurrence			95		6.1×10^6 U/mg	0.07	28.3	24.0	2.91	28.3	24	lower	lower	68.5

From US20240307496A1, “METHOD AND PHARMACEUTICAL COMBINATION FOR PREVENTING CANCER RECURRENCE” (priority 2021, published 2024)
